In the supplement of paper PMC6757056:
± gives the standard deviation of the averaged measurements.

B1: library; a variant is named by its letters at N, in order (parent)
chain: GCUGUCACCGGUGCUUGGUACGUUAUAUUCAGCCGGUCUGAUGAGUCUNNNNNNAGACGAAACAGC

Assays:
(6R,S)-folinic acid [1] = variants of: B1; experiment: normalized RNA/DNA level without ligand (relative to sTRSVctl = 100) (log10 (% of sTRSVctl)); HEK293T overexpressing SLC46A1; higher = less ribozyme self-cleavage, higher mRNA level; settings: without (6R,S)-folinic acid; ligand present: no
How it was run: (§1)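 HEK293T cells received ligand, where used, 1 h before being transfected with 4 µg per 6-well well of library plasmids encoding reporter-linked ribozyme switches. After 72 h, RNA was extracted with EDTA and sequenced. RNA level was derived from RNA reads per DNA read, normalized to a spiked-in non-cleaving sequence or the top sequences, then scaled and log-transformed. Values were ×100 then log10, the top set was 25 sequences, and the minimum was 100 DNA reads.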

(6R,S)-folinic acid [2] = variants of: B1; experiment: normalized RNA/DNA level with ligand (relative to sTRSVctl = 100) (log10 (% of sTRSVctl)); HEK293T overexpressing SLC46A1; ligand concentration (+) RNA-Seq: 6 mM; higher = less ribozyme self-cleavage, higher mRNA level; settings: with (6R,S)-folinic acid; ligand present: yes
How it was run: as §1

Variant | normalized RNA/DNA level without ligand (log10) ((6R,S)-folinic acid [1]) | normalized RNA/DNA level with ligand (log10) ((6R,S)-folinic acid [2])
UCCCCG | 1.997 ± 0.008 | 2.041 ± 0.019
UCCCCU | 2.06 ± 0.025 | 2.04 ± 0.049
UCCCCA | 2.052 ± 0.0085 | 2.04 ± 0.033
UCCCCC | 2.06 ± 0.033 | 2.063 ± 0.012
ACCAUU | 2.02 ± 0.03 | 2.044 ± 0.0061
ACCAUC | 2.044 ± 0.011 | 2.02 ± 0.04
ACCAUA | 1.988 ± 0.0064 | 2.013 ± 0.019
ACCAUG | 1.982 ± 0.012 | 2.016 ± 0.0077
CCCCGC | 2.09 ± 0.0037 | 2.05 ± 0.034
UCAUAC | 2.029 ± 0.0064 | 1.988 ± 0.019
UCAUAU | 1.952 ± 0.0097 | 1.98 ± 0.03
UCAUAG | 1.829 ± 0.0068 | 1.984 ± 0.015
CCCCAU | 2.031 ± 0.01 | 2.03 ± 0.045
CCCCAG | 2.004 ± 0.019 | 2.038 ± 0.012
CCCCAA | 2.0237 ± 0.0015 | 1.999 ± 0.0078
CCCCAC | 2.04 ± 0.022 | 2.05 ± 0.037
ACCAGC | 2.071 ± 0.0016 | 2.06 ± 0.038
ACCAGU | 2.005 ± 0.0042 | 2.02 ± 0.013
ACCAGA | 2.019 ± 0.013 | 2.05 ± 0.033
ACCAGG | 1.9569 ± 0.0006 | 2 ± 0.024
GCCAGU | 2.056 ± 0.0089 | 2.049 ± 0.015
GCCCGA | 2.0343 ± 0.0013 | 2.04 ± 0.041
GCACUU | 2.001 ± 0.017 | 2.01 ± 0.021

Variant | normalized RNA/DNA level without ligand (log10) ((6R,S)-folinic acid [1]) | normalized RNA/DNA level with ligand (log10) ((6R,S)-folinic acid [2])
GCACUA | 2.019 ± 0.018 | 2.01 ± 0.022
GCACUG | 2 ± 0.024 | 2.02 ± 0.056
GCACUC | 2.022 ± 0.0041 | 2.022 ± 0.0086
ACAGUC | 2.0723 ± 0.0011 | 2.054 ± 0.0027
ACAGUA | 1.947 ± 0.0079 | 1.99 ± 0.043
ACAGUU | 2 ± 0.012 | 2.01 ± 0.046
GCACCU | 2.028 ± 0.015 | 2.01 ± 0.035
GCACCA | 2.04 ± 0.022 | 2 ± 0.039
GCACCC | 2.024 ± 0.004 | 2.012 ± 0.0027
GCACCG | 2.055 ± 0.0053 | 2.05 ± 0.061
GCAUCA | 2.023 ± 0.013 | 2.03 ± 0.022
GCAUCG | 2.01 ± 0.029 | 2.061 ± 0.011
GCAUCU | 2.054 ± 0.0071 | 2.04 ± 0.058
GCAUCC | 2.059 ± 0.0098 | 2.048 ± 0.0088
UCAGUU | 2.008 ± 0.02 | 2 ± 0.049
UCAGUG | 1.78 ± 0.018 | 1.972 ± 0.011
UCAGUA | 1.98 ± 0.021 | 2 ± 0.046
UCCACU | 2.041 ± 0.0029 | 2.052 ± 0.014
UCCACA | 1.985 ± 0.0093 | 2 ± 0.046
UCCACC | 2.018 ± 0.017 | 2.03 ± 0.022
CCACUC | 1.9795 ± 0.0011 | 2.008 ± 0.02
CCACUA | 2.018 ± 0.0041 | 2.02 ± 0.015
CCACUG | 2.02 ± 0.041 | 2.074 ± 0.018

Variant | normalized RNA/DNA level without ligand (log10) ((6R,S)-folinic acid [1]) | normalized RNA/DNA level with ligand (log10) ((6R,S)-folinic acid [2])
CCACGC | 2.01 ± 0.022 | 2.01 ± 0.025
CCACGG | 2.06 ± 0.029 | 2.04 ± 0.048
CCACGA | 2.011 ± 0.0078 | 2.019 ± 0.009
CCACAC | 1.99 ± 0.02 | 1.967 ± 0.0084
CCACAG | 1.95 ± 0.026 | 2 ± 0.024
CCACAU | 1.961 ± 0.004 | 1.98 ± 0.072
CCCAAC | 2.042 ± 0.017 | 2.019 ± 0.017
CCCAAA | 2.02 ± 0.025 | 2.026 ± 0.0099
CCCAAU | 2.023 ± 0.015 | 2.03 ± 0.028
CCCAAG | 1.935 ± 0.014 | 1.99 ± 0.031
ACCCCC | 2.04 ± 0.016 | 2.002 ± 0.015
ACCCCA | 2.02 ± 0.011 | 2 ± 0.05
ACCCCG | 1.998 ± 0.0083 | 1.99 ± 0.073
ACCCCU | 1.997 ± 0.0056 | 1.98 ± 0.073
ACACCC | 2.041 ± 0.0034 | 1.97 ± 0.045
ACACCU | 2.0447 ± 0.0018 | 2.05 ± 0.048
GCAUGU | 1.983 ± 0.0026 | 2.02 ± 0.055
GCAUGC | 2.025 ± 0.0027 | 1.999 ± 0.0055
GCAUGG | 1.944 ± 0.0075 | 2.04 ± 0.028
UCACAG | 1.9 ± 0.0082 | 1.979 ± 0.012
UCACAC | 2.048 ± 0.015 | 2.023 ± 0.016
UCACAU | 1.986 ± 0.0076 | 2.02 ± 0.048
ACAUAG | 1.935 ± 0.013 | 2.02 ± 0.021

Variant | normalized RNA/DNA level without ligand (log10) ((6R,S)-folinic acid [1]) | normalized RNA/DNA level with ligand (log10) ((6R,S)-folinic acid [2])
ACAUAU | 1.94 ± 0.037 | 2.01 ± 0.022
GCCACU | 2.022 ± 0.011 | 2.01 ± 0.029
GCCACC | 2.0387 ± 0.00018 | 2.01 ± 0.025
GCCACA | 2.036 ± 0.0076 | 2.026 ± 0.018
GCCACG | 1.99 ± 0.04 | 2.03 ± 0.062
CCAGCG | 1.97 ± 0.025 | 1.99 ± 0.027
CCAGCU | 2.087 ± 0.018 | 2.036 ± 0.013
CCAGCA | 2.01 ± 0.031 | 1.985 ± 0.0059
UCACCC | 2.05 ± 0.025 | 2.04 ± 0.037
UCACCA | 2.0085 ± 0.0017 | 2.006 ± 0.0035
UCACCU | 2.051 ± 0.0042 | 2.06 ± 0.027
ACACUG | 1.968 ± 0.01 | 2.03 ± 0.044
ACACUC | 2.05 ± 0.027 | 2.03 ± 0.031
ACACUA | 2.017 ± 0.012 | 2.01 ± 0.043
ACACUU | 1.996 ± 0.016 | 2.03 ± 0.027
GCCAAU | 2.001 ± 0.0032 | 2 ± 0.053
GCCAAG | 2.0227 ± 0.0017 | 2.04 ± 0.038
GCCAAC | 2.033 ± 0.02 | 2.055 ± 0.011
CCAUCU | 2.071 ± 0.0041 | 2.07 ± 0.035
CCAUCC | 2.094 ± 0.013 | 2.06 ± 0.021
CCAUCG | 2.012 ± 0.01 | 2.017 ± 0.014
CCAUCA | 2.026 ± 0.0086 | 2.02 ± 0.05
CCCACU | 2.103 ± 0.016 | 2.08 ± 0.062

Variant | normalized RNA/DNA level without ligand (log10) ((6R,S)-folinic acid [1]) | normalized RNA/DNA level with ligand (log10) ((6R,S)-folinic acid [2])
CCCACC | 2.022 ± 0.0044 | 1.99 ± 0.021
CCCACA | 2.05 ± 0.027 | 2 ± 0.034
CCCACG | 2.014 ± 0.0016 | 2.03 ± 0.021
CCCAGA | 2.0467 ± 0.00053 | 2.029 ± 0.012
CCCAGC | 2.06 ± 0.035 | 2.06 ± 0.068
CCCAGG | 2.042 ± 0.006 | 2.01 ± 0.025
CCCAGU | 2.05 ± 0.038 | 2.034 ± 0.02
UCCCAA | 1.981 ± 0.011 | 1.97 ± 0.024
UCCCAC | 2.026 ± 0.012 | 2.02 ± 0.043
UCCCAU | 2.003 ± 0.0031 | 1.9973 ± 0.0006
UCCCAG | 1.962 ± 0.014 | 2.04 ± 0.03
UCACUA | 1.9969 ± 0.0017 | 2.019 ± 0.0085
UCACUU | 2.021 ± 0.0092 | 2.04 ± 0.018
UCACUG | 1.906 ± 0.0057 | 2.015 ± 0.02
UCACUC | 2.07 ± 0.01 | 2.05 ± 0.026
ACACGC | 1.981 ± 0.015 | 1.99 ± 0.049
ACACGU | 2.023 ± 0.013 | 2.03 ± 0.022
ACACGG | 1.934 ± 0.013 | 2.02 ± 0.04
GCAGUG | 1.9 ± 0.021 | 2.02 ± 0.038
GCAGUC | 2.046 ± 0.0028 | 2.05 ± 0.048
GCAGUU | 2.03 ± 0.0047 | 2.04 ± 0.053
CCAGAG | 1.909 ± 0.013 | 2.014 ± 0.019
CCAGAC | 1.99 ± 0.023 | 1.98 ± 0.051
